Molecular target: GII.10 P domain (Vietnam026) (norovirus GII.10 (Vietnam026))
Experiment: crystal structure

Substance: GII.10 P domain (Vietnam026) (domain or fragment)
- stoichiometry N: 2

Source: publication PMC5667739
